{"source": "patent US20090318342A1", "about": "“Compounds” (IMPERIAL INNOVATIONS LIMITED, priority 2005, published 2009)", "molecules": {"B1": {"name": "N-TIMP-3: N-terminal inhibitory domain of TIMP-3 (residues 1 to 121), C-terminally His-tagged, wild-type (protein)", "chain": "CTCSPSHPQDAFCNSDIVIRAKVVGKKLVKEGPFGTLVYTIKQMKMYRGFTKMPHVQYIHTEASESLCGLKLEVNKYQYLLTGRVYDGKMYTGLCNFVERWDQLTLSQRKGLNYRYHLGCN"}, "B2": {"name": "-1A: N-TIMP-3 mutant with the addition of an N-terminal alanine extension (-1A) (protein)", "chain": "ACTCSPSHPQDAFCNSDIVIRAKVVGKKLVKEGPFGTLVYTIKQMKMYRGFTKMPHVQYIHTEASESLCGLKLEVNKYQYLLTGRVYDGKMYTGLCNFVERWDQLTLSQRKGLNYRYHLGCN"}, "B3": {"name": "(-2A)N-TIMP-3: N-TIMP-3 mutant with two alanine residues on the N-terminal side of Cysteine1 of the TIMP-3 sequence (protein)", "chain": "AACTCSPSHPQDAFCNSDIVIRAKVVGKKLVKEGPFGTLVYTIKQMKMYRGFTKMPHVQYIHTEASESLCGLKLEVNKYQYLLTGRVYDGKMYTGLCNFVERWDQLTLSQRKGLNYRYHLGCN"}}, "type_in_all_cases": "biochemical", "key": {"gelatinase A (MMP-2)": {"molecular_target": "T1, gelatinase A (MMP-2) (Homo sapiens, UniProt P08253)", "T1 sequence (P08253 110-660)": "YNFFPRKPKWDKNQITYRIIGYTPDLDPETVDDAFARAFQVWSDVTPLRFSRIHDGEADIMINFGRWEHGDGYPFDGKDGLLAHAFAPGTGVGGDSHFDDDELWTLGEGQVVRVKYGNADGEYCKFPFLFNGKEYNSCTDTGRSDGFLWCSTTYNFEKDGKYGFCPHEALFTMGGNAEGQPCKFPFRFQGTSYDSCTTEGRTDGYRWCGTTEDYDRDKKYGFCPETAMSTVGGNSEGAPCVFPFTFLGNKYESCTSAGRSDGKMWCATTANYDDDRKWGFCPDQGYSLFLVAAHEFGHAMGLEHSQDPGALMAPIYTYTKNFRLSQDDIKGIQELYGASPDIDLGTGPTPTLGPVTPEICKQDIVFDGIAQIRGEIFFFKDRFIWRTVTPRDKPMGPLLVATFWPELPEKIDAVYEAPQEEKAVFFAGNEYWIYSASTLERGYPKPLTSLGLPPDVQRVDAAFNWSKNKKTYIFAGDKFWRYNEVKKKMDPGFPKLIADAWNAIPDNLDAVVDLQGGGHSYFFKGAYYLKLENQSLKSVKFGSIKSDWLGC", "assay": "Enzyme inhibition kinetic study, MMP-2", "settings": "for Ki: read-out: Ki(app) MMP-2", "description": "(§1) Enzyme inhibition kinetic studies—Inhibition kinetic studies for MMPs and TACE were carried out as described previously (19, 27) with modifications. Purified N-TIMP-3 and mutants were dialyzed against 20 mM Tris-HCl (pH 7.0), 50 mM NaCl containing 20% glycerol, centrifuged at 14,000 rpm for 10 min to remove any precipitate, and protein concentration was re-measured before conducting inhibition assays. Since NaCl inhibits the activity of the TACE ectodomain in vitro (28), we adjusted the final concentration of NaCl to 1 mM in all assays with TACE. Equal volumes (10% of total assay volume) of diluted solutions of N-TIMP-3 and mutants were added to TACE assays, resulting in a final pH of 8.8.\n(§2) (Eq. 1) Tight binding inhibition:\n(§3) where v is the experimentally determined reaction velocity, v0 is the uninhibited activity, E is enzyme concentration, I is inhibitor concentration, K is the apparent inhibition constant (Ki^(app)) and h is the Hill coefficient.\n(§4) Inhibitory properties of mutants with purified metalloproteinases—The inhibitory activities of wild-type N-TIMP-3 and the two mutants were determined with MMPs representing four different sub-groups: full-length collagenase 1 (MMP-1), gelatinase A (MMP-2), and the catalytic domains of stromelysin 1 (MMP-3(ΔC)) and membrane-type 1 MMP (MMP-14). As previously reported for the corresponding mutants of N-TIMP-1 and TIMP-2 (17, 18), both mutations in N-TIMP-3 reduced the inhibitory activity towards the four MMPs by 2 to 3 orders of magnitude (Table I). FIG. 2A highlights the difference in inhibition of MMP-14(CD) by wild-type and mutated N-TIMP-3.\n(§5) Ki(app) determinations for MMP-1, MMP-2 and MMP-3 were performed as set out in Example 1."}, "[1]": {"molecular_target": "T2, catalytic domain of stromelysin 1 (MMP-3(ΔC)) (Homo sapiens, UniProt P08254)", "T2 construct": "the catalytic domains of stromelysin 1 (MMP-3(ΔC)) and membrane-type 1 MMP (MMP-14)", "T2 sequence (P08254 100-272 limits assumed, stated change not applied)": "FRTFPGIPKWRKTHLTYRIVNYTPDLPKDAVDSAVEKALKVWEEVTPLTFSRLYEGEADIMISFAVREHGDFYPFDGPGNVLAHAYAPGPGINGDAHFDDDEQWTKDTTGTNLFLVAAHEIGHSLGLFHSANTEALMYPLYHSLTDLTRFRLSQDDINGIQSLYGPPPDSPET", "assay": "Enzyme inhibition kinetic study, MMP-3", "description": "as §1, §2, §3, §4, §5"}, "[2]": {"molecular_target": "T3, full-length collagenase 1 (MMP-1) (Homo sapiens, UniProt P03956)", "T3 construct": "full-length collagenase 1 (MMP-1)", "T3 sequence (P03956 100-469)": "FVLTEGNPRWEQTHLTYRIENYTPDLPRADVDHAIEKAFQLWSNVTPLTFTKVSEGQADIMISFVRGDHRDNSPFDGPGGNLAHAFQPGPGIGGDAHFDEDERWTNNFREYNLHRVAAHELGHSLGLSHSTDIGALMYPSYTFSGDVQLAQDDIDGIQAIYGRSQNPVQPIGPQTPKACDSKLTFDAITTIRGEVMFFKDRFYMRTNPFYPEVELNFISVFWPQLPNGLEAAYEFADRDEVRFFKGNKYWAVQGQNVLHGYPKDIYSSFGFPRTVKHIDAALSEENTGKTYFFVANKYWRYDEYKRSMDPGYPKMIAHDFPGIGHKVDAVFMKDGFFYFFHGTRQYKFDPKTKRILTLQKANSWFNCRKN", "assay": "Enzyme inhibition kinetic study, MMP-1", "description": "as §1, §2, §3, §4, §5"}, "[3]": {"molecular_target": "soluble form of TACE (TACE R651) (Homo sapiens, UniProt P78536)", "sequence (P78536 215-651)": "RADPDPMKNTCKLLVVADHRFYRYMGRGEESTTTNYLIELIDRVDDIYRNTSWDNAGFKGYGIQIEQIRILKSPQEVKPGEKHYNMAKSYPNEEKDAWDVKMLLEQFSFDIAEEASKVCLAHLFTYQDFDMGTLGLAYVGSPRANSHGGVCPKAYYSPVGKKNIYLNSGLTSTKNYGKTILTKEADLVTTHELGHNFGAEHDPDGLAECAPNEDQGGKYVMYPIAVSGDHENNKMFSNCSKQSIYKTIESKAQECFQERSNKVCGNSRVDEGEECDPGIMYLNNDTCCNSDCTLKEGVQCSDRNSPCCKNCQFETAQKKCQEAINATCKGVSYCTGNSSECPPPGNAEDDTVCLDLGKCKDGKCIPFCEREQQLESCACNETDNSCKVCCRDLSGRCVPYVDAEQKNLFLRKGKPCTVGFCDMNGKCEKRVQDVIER", "assay": "Enzyme inhibition kinetic study, TACE", "description": "FIG. 2. Inhibition of MMP and TACE by N-TIMP-3 and its mutants. A. Inhibition of MMP-14(CD) by wild-type and mutated N-TIMP-3. Open circles, wild-type N-TIMP-3; closed circles, T2G; and open squares, -1A. B. Comparison of the inhibition of TACE by wild-type N-TIMP-3, N-TIMP-1 and TAPI-2. The inhibitors were incubated with 0.5 nM TACE for 3 hr at room temperature, and the residual enzyme activity was measured with 10 μM Substrate III (R&D Systems). […] Open circles, N-TIMP-3; closed circles, TAPI-2; and open squares, N-TIMP-1. C. Inhibition of TACE (0.5 nM) by wild-type and mutated N-TIMP-3. Open circles, wild-type inhibitor; closed circles, T2G; and open squares, -1A.\nas §1, §3\nThe inhibitory activities of the mutants were also compared with that of wild-type N-TIMP-3 against a soluble form of TACE in which the transmembrane and C-terminal cytoplasmic domains are deleted (TACE R651; (28)). […] The inhibition curve of TACE by wild-type N-TIMP-3 is sigmoid, in striking contrast with the inhibition by TAPI-2 and with the inhibition of MMPs by N-TIMP-3 and N-TIMP-1 (FIGS. 2A, 2B; (31)). Sigmoid inhibition curves were also obtained for TACE with the T2G and -1A mutants of N-TIMP-3 (FIG. 2C)."}, "[4]": {"settings": "Table 3, read-out: Ki(app) MMP-3"}, "[5]": {"settings": "Table 3, read-out: Ki(app) MMP-1"}, "[6]": {"settings": "higher pH and low ionic strength (TACE conditions), read-out: Ki MMP-1 under the conditions used for TACE activity measurements"}, "[7]": {"settings": "Table II, 0.5 nM TACE, pH 9.0, 1 mM NaCl, fit with equation 3"}, "[8]": {"settings": "Table II, 0.5 nM TACE, pH 9.0, 1 mM NaCl, fit with equation 3, read-out: Ki(app) TACE"}}, "note": "Read-outs that look alike come from different tables or passages of the source.", "data": [{"molecule": "B1", "values": [{"measurement": "Ki", "setting": "gelatinase A (MMP-2); Table 3", "result": "5.1 ± 1", "unit": "nM"}, {"measurement": "Ki", "setting": "[1]; [4]", "result": "1.8 ± 0.4", "unit": "nM"}, {"measurement": "Ki", "setting": "[2]; [5]", "result": "8.2 ± 2", "unit": "nM"}, {"measurement": "Ki", "setting": "[2]; [6]", "result": 1.6, "unit": "nM"}, {"measurement": "Inhibition of TACE activity (in words)", "setting": "[3]; FIG. 2B, 0.5 nM TACE, pH 9.0, 1 mM NaCl", "result": "effectively inhibited"}, {"measurement": "h (Hill coefficient) for TACE inhibition", "setting": "[3]; [7]", "result": "3.59 ± 0.16"}, {"measurement": "Ki", "setting": "[3]; [8]", "result": "13.7 ± 0.2", "unit": "nM"}, {"measurement": "Ki", "setting": "[3]; pH 7.5, sigmoid inhibition curves, read-out: Ki against TACE at pH 7.5", "result": "26 ± 3", "unit": "nM"}]}, {"molecule": "B2", "values": [{"measurement": "Ki", "setting": "gelatinase A (MMP-2); Table 3", "result": "> 1000", "unit": "nM"}, {"measurement": "Ki", "setting": "gelatinase A (MMP-2); Table I, enzyme 1 nM, pH 7.5", "result": "614 ± 32", "unit": "nM"}, {"measurement": "Ki", "setting": "[1]; [4]", "result": "> 1000", "unit": "nM"}, {"measurement": "Ki", "setting": "[1]; Table I, enzyme 1 nM, pH 7.5, read-out: Ki(app) MMP-3(ΔC)", "result": "~3300", "unit": "nM"}, {"measurement": "Ki", "setting": "[2]; [5]", "result": "> 500", "unit": "nM"}, {"measurement": "Ki", "setting": "[2]; Table I, enzyme 5 nM, pH 7.5, read-out: Ki(app) MMP-1", "result": "~1300", "unit": "nM"}, {"measurement": "Ki", "setting": "[2]; [6]", "result": 412, "unit": "nM"}, {"measurement": "h (Hill coefficient) for TACE inhibition", "setting": "[3]; [7]", "result": "1.9 ± 0.22"}, {"measurement": "Ki", "setting": "[3]; [8]", "result": "33.9 ± 2.8", "unit": "nM"}]}, {"molecule": "B3", "values": [{"measurement": "Inhibition of MMP-2", "setting": "gelatinase A (MMP-2); 100 nM", "result": "no inhibition"}, {"measurement": "Inhibition of MMP-3", "setting": "[1]; 100 nM", "result": "no inhibition"}, {"measurement": "Inhibition of MMP-1", "setting": "[2]; 100 nM", "result": "no inhibition"}, {"measurement": "Inhibition of TACE activity", "setting": "[3]; 100 nM", "result": "80-90%"}]}]}
